According to article PMC10368004:

Experiments:
Test in all cases: FM-AFM imaging
Conditions in all cases: remark: other sources report otherwise
[1] = biological target: T1, annexin A5, P08758
T1 chain: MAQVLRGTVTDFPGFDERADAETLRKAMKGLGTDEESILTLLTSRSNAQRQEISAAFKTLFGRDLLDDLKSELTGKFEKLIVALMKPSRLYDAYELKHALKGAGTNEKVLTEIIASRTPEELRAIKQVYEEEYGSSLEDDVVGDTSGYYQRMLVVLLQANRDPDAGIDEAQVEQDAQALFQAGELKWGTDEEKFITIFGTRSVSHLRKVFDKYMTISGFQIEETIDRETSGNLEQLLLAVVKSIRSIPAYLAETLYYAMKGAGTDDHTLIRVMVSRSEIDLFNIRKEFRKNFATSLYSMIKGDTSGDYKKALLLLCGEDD

[2] = biological target: T1, annexin A5, P08758
[3] = biological target: T1, annexin A5, P08758

percentage of unoccupied hollow sites (vacancies, sites without an H-trimer) [1]: 65.9%
percentage of unoccupied hollow sites (vacancies, sites without an H-trimer) [2]: 73.6%
stoichiometry N [2]: 3
percentage of unoccupied hollow sites (vacancies, sites without an H-trimer) [3]: 56.1%
B1: annexin A5, P08758 1-320 (natural protein)
chain: T1 chain
